Data: patent US20240010724A1 (Amgen, published 2024)

Experiments:
Assay in all cases: flow cytometry, transfected 293T cells
[1] = target: T1, muCDH19(44-362)::huCDH19(365-772) (human/mouse chimera)
T1 construct: also called Hu EC4-5
T1 chain: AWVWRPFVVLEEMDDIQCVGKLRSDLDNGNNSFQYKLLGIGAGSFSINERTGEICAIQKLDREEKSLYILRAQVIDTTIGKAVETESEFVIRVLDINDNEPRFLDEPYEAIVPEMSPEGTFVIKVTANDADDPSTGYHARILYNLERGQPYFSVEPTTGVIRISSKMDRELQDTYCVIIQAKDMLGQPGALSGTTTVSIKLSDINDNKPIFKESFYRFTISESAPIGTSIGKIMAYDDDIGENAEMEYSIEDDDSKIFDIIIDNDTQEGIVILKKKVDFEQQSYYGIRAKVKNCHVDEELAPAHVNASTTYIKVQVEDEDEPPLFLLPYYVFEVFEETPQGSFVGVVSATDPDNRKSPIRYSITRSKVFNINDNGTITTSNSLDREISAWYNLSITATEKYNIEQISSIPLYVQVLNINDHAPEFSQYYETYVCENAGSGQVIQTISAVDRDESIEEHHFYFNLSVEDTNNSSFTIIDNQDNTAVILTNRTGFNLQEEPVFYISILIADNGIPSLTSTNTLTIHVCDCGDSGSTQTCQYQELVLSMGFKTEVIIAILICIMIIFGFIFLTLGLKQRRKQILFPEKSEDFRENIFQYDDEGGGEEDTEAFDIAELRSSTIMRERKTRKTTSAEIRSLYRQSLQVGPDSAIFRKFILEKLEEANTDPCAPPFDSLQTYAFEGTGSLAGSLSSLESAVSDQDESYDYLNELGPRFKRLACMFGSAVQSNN

[2] = target: T2, muCDH19(44-139)::huCDH19(142-249):muCDH19(248-770) (human/mouse chimera)
T2 construct: also called Hu EC2
T2 chain: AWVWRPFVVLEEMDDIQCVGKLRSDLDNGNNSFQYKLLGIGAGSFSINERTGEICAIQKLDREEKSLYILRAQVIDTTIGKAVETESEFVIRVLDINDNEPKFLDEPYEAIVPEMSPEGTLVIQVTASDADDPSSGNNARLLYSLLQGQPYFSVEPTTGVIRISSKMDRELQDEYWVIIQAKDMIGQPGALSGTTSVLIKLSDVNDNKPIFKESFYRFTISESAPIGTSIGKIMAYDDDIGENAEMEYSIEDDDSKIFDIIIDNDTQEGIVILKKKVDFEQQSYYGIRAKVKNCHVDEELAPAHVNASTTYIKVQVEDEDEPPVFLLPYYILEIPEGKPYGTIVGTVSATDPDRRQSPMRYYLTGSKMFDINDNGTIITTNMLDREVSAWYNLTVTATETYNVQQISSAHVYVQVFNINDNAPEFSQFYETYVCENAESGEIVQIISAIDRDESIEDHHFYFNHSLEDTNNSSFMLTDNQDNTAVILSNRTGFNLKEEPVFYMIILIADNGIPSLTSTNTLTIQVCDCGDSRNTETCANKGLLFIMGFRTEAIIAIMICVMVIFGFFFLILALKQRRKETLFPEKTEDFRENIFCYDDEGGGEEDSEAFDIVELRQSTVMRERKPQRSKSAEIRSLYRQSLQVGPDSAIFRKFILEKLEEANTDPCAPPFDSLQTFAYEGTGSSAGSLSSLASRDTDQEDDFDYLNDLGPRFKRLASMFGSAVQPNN

[3] = target: T3, muCDH19(44-247)::huCDH19(250-364)::muCDH19(363-770) (human/mouse chimera)
T3 construct: also called Hu EC3

[4] = target: T4, huCDH19(44-249)::muCDH19(248-770) (human/mouse chimera)
T4 construct: also called Hu EC1-2

[5] = target: T5, muCDH19(44-139)::huCDH19(142-364)::muCDH19(363-770) (human/mouse chimera)
T5 construct: also called Hu EC2-3

[6] = target: T6, huCDH19(44-141)::muCDH19(140-770) (human/mouse chimera)
T6 construct: also called Hu EC1

[7] = target: T7, muCDH19(44-461)::huCDH19(464-772) (human/mouse chimera)
T7 construct: also called Hu EC5
T7 chain: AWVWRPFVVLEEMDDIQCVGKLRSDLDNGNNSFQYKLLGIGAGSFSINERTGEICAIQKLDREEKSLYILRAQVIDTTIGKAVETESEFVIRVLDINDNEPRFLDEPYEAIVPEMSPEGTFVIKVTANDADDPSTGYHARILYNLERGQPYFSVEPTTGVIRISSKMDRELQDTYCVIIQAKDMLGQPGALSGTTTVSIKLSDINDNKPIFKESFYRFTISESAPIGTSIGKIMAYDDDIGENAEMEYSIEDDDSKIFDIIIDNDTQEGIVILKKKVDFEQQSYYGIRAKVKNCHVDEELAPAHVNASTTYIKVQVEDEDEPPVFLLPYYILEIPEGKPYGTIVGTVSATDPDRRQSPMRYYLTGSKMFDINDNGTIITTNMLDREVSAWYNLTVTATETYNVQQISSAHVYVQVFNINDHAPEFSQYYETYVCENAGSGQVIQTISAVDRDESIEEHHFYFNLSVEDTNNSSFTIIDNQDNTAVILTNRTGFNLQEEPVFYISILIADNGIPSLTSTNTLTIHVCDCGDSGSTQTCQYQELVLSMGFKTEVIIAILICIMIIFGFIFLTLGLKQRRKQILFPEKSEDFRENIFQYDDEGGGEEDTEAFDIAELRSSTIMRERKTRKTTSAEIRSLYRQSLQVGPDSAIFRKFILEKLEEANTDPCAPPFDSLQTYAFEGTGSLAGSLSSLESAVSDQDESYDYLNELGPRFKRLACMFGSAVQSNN

[8] = target: T8, huCDH19(44-772) (human, UniProt Q9H159 44-772)
T8 construct: also called Hu EC1-5

[9] = target: T9, muCDH19(44-770) (mouse)
T9 construct: also called Mu EC1-5
T9 chain: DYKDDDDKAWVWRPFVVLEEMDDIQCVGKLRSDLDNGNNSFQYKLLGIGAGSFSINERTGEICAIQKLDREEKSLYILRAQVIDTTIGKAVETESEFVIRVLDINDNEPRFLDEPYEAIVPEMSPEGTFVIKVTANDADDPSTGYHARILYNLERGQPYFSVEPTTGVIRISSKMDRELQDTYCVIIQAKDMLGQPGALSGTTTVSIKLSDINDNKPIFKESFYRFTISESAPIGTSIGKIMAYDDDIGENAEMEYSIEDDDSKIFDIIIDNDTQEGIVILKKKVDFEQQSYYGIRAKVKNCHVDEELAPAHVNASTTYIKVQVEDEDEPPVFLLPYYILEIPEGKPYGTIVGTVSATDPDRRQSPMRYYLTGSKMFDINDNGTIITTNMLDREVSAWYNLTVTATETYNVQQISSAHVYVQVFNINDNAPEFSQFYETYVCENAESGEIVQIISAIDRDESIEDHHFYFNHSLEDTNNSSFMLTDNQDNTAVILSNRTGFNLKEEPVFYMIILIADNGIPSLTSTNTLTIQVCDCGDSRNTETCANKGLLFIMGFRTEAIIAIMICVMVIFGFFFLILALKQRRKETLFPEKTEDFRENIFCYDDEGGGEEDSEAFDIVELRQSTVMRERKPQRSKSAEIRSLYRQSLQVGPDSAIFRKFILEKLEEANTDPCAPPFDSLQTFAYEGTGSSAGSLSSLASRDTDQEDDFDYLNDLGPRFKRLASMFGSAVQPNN

Measured: binding result

B1: anti-CDH19 antibody 14039 (antibody, human IgG1, lambda, V domains shown)
VH: QVQLVESGGGVVQPGGSLRLSCAASGFTFSSYGMHWVRQAPGKGLEWVAFIWYEGSNKYYAESVKDRFTISRDNSKNTLYLQMNSLRAEDTAVYYCARRAGIIGTIGYYYGMDVWGQGTTVTVSS
VL: SYELTQPPSVSVSPGQTASITCSGDRLGEKYTSWYQQRPGQSPLLVIYQDTKRPSGIPERFSGSNSGNTATLTISGTQAMDEADYYCQAWESSTVVFGGGTKLTVLG
not listed: [8] | [9]
binds: all other assays above

B2: anti-CDH19 antibody 14304 (antibody, V domains shown)
VH: QVQLVESGGGVVQPGGSLRLSCAASGFTFSSYGMHWVRQAPGKGLEWVAFIWYDGSNKYYADSVKDRFTISRDNSKNTLYLQMKSLRAEDTAVYYCARRAGIIGTIGYYYGMDVWGQGTTVTVSS
VL: SYELTQPPSVSVSPGQTASITCSGDRLGEKYVSWYQQKPGQSPILVIYQDNKWPSGIPERFSGSNSGNTATLTISGTQAMDEADYYCQAWDSSTVVFGGGTKLTVLG
binds: all assays above

B3: anti-CDH19 antibody 13880 (clone 25F8) (antibody, human IgG1, lambda, V domains shown)
VH: QVQLVQSGAEVKKPGASVKVSCKASGYTFTSYYIHWVRQAPGQGLEWMGIINPSGGSTRYAQKFQGRVTMTRDTSTSTVFMELSSLRSEDTAVYYCARGGIQLWLHFDYWGQGTLVTVSS
VL: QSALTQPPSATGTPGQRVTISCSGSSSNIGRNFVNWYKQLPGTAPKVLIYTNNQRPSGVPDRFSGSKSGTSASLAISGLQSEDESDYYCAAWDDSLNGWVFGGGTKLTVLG
notes: fully human XenoMouse monoclonal antibody; bin 2
binds: [4] | [6]

B4: anti-CDH19 antibody 13882 (clone 26D1) (antibody, human IgG1, lambda, V domains shown)
VH: QVQLVQSGAEVKKPGASVKVSCKASRYTFTSYYMSWVRQAPGQGLEWMGIIHPSGGDTTYAQKFQGRVTMTGDTSTSTVYMELSSLRSEDTAVYYCARGGIKLWLHFDYWGQGTLVTVSS
VL: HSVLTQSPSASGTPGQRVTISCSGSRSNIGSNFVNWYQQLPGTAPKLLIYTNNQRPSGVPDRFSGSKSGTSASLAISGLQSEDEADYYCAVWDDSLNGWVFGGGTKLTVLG
notes: as for B3
binds: [4] | [6]

B5: anti-CDH19 antibody 13589 (clone 4A9) (antibody, human IgG1, lambda, V domains shown)
VH: QVQLQESGPGLVKPSETLSLTCTVSGGSISGYYWSWIRQPPGKGLEWFAYFSYSGSTNYNPSLKSRVTLSVDTSKNQFSLKLSSVTAADTAVYYCARNWAFHFDFWGQGTLVTVSS
VL: QSVLTQPPSVSGAPGQRVTISCTGSSSNIGTGYAVHWYQQFPGTAPKLLIYGNNNRPSGVPDRFSGSKSGTSASLAITGLQAEDEADYYCQSYDSRLSGWVFGGGTKLTVLG
notes: fully human XenoMouse monoclonal antibody; bin 1; also called Alexa647-labelled 4A9
binds: [4] | [6]

B6: anti-CDH19 antibody 13590 (clone 4B10) (antibody, V domains shown)
VH: QVQLVESGGGVVQPGRSLRLSCAASGFTFSSYDMHWVRQAPGKGLEWVAVISYDGTNEYYADSVKGRFTISRDTSKNTLYLQMNSLRAEDTAVYYCARERYFDWSFDYWGQGTLVSVSS
VL: EIVLTQSPGTLSLSPGERATLSCRASQSVSNTYLAWYHQRPGQAPRLLIYGASSRATGIPDRFSGSGSGTDFALTISSLEPEDFAVYYCQQYSNSWTFGQGTKVEIKR
notes: fully human XenoMouse monoclonal antibody; bin 4
binds: [3] | [5]
